Patent US20250197525A1 (MINOTAUR THERAPEUTICS, published 2025)

T1: IL2/15Rβ and γc receptor subunits (UniProt P31785 23-369, limits assumed)
T1 sequence 1: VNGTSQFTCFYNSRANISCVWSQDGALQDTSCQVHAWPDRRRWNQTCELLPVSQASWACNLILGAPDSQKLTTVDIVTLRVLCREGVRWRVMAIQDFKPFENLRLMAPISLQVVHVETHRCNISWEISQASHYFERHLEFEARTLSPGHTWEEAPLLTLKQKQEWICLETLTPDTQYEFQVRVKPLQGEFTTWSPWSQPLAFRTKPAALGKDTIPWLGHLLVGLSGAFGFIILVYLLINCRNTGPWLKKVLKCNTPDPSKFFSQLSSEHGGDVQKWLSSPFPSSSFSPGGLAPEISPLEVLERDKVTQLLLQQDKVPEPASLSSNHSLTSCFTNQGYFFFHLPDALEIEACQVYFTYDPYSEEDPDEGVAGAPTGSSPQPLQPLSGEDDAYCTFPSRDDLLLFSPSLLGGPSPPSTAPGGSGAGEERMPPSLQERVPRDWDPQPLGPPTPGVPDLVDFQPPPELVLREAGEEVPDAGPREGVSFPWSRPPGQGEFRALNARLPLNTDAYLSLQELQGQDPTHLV
T1 sequence 2: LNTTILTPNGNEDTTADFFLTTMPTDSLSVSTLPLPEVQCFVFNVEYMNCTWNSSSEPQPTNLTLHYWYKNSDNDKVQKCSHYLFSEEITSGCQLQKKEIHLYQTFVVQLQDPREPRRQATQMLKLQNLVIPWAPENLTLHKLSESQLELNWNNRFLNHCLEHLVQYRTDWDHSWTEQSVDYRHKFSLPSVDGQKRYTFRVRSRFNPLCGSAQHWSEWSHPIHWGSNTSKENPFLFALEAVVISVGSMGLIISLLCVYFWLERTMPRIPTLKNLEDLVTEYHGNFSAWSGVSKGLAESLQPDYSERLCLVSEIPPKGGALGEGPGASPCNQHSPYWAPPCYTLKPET

B1: B15 Variant 1 (chimeric BLV1H12-IL-15 fusion antibody) (antibody, human IgG1, lambda, L234A L235A)
heavy: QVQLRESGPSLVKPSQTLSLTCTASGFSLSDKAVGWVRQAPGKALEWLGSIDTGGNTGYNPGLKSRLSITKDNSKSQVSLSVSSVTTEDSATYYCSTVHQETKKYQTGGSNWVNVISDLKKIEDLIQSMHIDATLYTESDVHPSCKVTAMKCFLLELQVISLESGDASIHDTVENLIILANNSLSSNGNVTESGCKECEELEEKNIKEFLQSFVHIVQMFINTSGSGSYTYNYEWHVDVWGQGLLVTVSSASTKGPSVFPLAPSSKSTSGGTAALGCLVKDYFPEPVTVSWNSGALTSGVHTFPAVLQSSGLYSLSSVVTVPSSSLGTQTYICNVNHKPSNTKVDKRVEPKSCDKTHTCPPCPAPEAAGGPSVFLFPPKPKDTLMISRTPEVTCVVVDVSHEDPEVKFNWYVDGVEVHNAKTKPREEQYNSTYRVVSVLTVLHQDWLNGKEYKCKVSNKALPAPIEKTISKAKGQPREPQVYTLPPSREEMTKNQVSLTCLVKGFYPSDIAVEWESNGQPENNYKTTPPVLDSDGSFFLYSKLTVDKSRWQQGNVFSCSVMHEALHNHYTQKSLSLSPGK
light: QAVLNQPSSVSGSLGQKVTISCSGSSSNIGNNYVSWYQQLPGTAPKLLIYGDTKRPSGIPDRFSGSKSGTSATLGITGLQTGDEADYYCASAEDSSSNAVFGSGTTLTVLGQPKAAPSVTLFPPSSEELQANKATLVCLISDFYPGAVTVAWKADSSPVKAGVETTTPSKQSNNKYAASSYLSLTPEQWKSHRSYSCQVTHEGSTVEKTVAPTECS
B2: B15 Variant 3 (chimeric BLV1H12-IL-15 fusion antibody) (antibody, human IgG1, lambda, L234A L235A)
heavy: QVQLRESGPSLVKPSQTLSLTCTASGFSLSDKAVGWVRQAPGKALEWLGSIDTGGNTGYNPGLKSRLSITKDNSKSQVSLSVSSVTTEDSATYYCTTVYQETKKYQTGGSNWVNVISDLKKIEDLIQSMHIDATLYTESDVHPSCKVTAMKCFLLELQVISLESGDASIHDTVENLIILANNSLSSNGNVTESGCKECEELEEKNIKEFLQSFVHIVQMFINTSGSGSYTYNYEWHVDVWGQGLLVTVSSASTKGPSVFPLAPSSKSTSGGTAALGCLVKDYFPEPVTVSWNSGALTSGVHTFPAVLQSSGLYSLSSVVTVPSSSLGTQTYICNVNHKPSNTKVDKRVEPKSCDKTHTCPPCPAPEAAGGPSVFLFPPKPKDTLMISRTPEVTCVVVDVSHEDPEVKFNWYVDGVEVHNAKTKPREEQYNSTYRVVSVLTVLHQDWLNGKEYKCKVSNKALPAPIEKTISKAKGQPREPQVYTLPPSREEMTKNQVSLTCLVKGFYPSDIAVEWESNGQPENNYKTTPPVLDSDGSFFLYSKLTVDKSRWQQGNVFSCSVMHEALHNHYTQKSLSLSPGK
light: B1 light

Molecular target: T1, IL2/15Rβ and γc receptor subunits
Experiment: cell-based or functional assay

Row | Binder | EC50 (nM), STAT5 inducible SEAP reporter in HEK-Blue IL2 reporter cells
1 | B1 | 0.032 nM
2 | B2 | 0.026 nM
